The labels stand for the following.
B1: Ankyrin-1, residues 1405 to 1484; numbered along this chain, P16157 (parent)
chain: MKMAVISEHLGLSWAELARELQFSVEDINRIRVENPNSLLEQSVALLNLWVIREGQNANMENLYTALQSIDRGEIVNMLE

For 35 variants, abundance fitness results are on record in the Human Domainome abundance scans (Beltran et al. 2025).

± gives the uncertainty stated by the source.

In this data set the parent is B1. Kind of data set: abundance fitness (aPCA) (normalised: wild type 0, dead -1); higher = more abundant; growth selection in yeast, the domain comes from the species named. The conditions noted are these: Homo sapiens.
With MKMAVISEHLGLSWAELARELQFSVEDINRIRVENPNSLLEQSVALLNLWVIREGQNANMENLYTYLQSIDRGEIVNMLE [A66Y], the abundance fitness was -0.494 ± 0.11.

As for MKMAVISEHLGLSWAELARELQFSVEDINRIRVENPNSLLEQSVALLNLWVIREGQNANMENLYTSLQSIDRGEIVNMLE [A66S], the abundance fitness was -0.26 ± 0.069.

On to MKMAVISEHLGLSWAELARELQFSVEDINRIRVENPNSLLEQSVALLNLWVIREGQNANMENLYTCLQSIDRGEIVNMLE [A66C], for which the abundance fitness is 0.016 ± 0.07.

As for MKMAVISEHLGLSWAELARELQFSVEDINRIRVENPNSLLEQSVALLNLWVIREGQNANMENLYTELQSIDRGEIVNMLE [A66E], the abundance fitness was -0.85 ± 0.17.

Regarding MKMAVISEHLGLSWAELARELQFSVEDINRIRVENPNSLLEQSVALLNLWVIREGQNANMENLYTTLQSIDRGEIVNMLE [A66T], the abundance fitness is -0.794 ± 0.13.

Regarding MKMAVISEHLGLSWAELARELQFSVEDINRIRVENPNSLLEQSVALLNLWVIREGQNANMENLYTFLQSIDRGEIVNMLE [A66F], the abundance fitness is -1.05 ± 0.48.

In the case of MKMAVISEHLGLSWAELARELQFSVEDINRIRVENPNSLLEQSVALLNLWVIREGQNANMENLYTILQSIDRGEIVNMLE [A66I], the abundance fitness was -0.564 ± 0.28.

For MKMAVISEHLGLSWAELARELQFSVEDINRIRVENPNSLLEQSVALLNLWVIREGQNANMENLYTGLQSIDRGEIVNMLE [A66G], the abundance fitness was -0.197 ± 0.048.

For MKMAVISEHLGLSWAELARELQFSVEDINRIRVENPNSLLEQSVALLNLWVIREGQNANMENLYTVLQSIDRGEIVNMLE [A66V], the abundance fitness was -0.749 ± 0.097.

As for MKMAVISEHLGLSWAELARELQFSVEDINRIRVENPNSLLEQSVALLNLWVIREGQNANMENLYTNLQSIDRGEIVNMLE [A66N], the abundance fitness is -0.562 ± 0.19.

As for MKMAVISEHLGLSWAELARELQFSVEDINRIRVENPNSLLEQSVALLNLWVIREGQNANMENLYTPLQSIDRGEIVNMLE [A66P], the abundance fitness was -0.1 ± 0.066.

As for MKMAVISEHLGLSWAELARELQFSVEDINRIRVENPNSLLEQSVALLNLWVIREGQNANMENLYTHLQSIDRGEIVNMLE [A66H], the abundance fitness is -0.151 ± 0.087.

Regarding MKMAVISEHLGLSWAELARELQFSVEDINRIRVENPNSLLEQSVALLNLWVIREGQNANMENLYTDLQSIDRGEIVNMLE [A66D], the abundance fitness is -0.884 ± 0.15.

Take MKMAVISEHLGLSWAELARELQFSVEDINRIRVENPNSLLEQSVALLNLWVIREGQNANMENLYTKLQSIDRGEIVNMLE [A66K]: the abundance fitness was -0.263 ± 0.12.

Turning to MKMAVISEHLGLSWAELARELQFSVEDINRIRVENPNSLLEQSVALLNLWVIREGQNANMENLYTQLQSIDRGEIVNMLE [A66Q], the abundance fitness was -0.402 ± 0.21.

Consider MKMAVISEHLGLSWAELARELQFSVEDINRIRVENPNSLLEQSVALLNLWVIREGQNANMENLYTLLQSIDRGEIVNMLE [A66L], for which the abundance fitness was -0.977 ± 0.11.

For MKMAVISEHLGLSWAELARELQFSVEDINRIRVENPNSLLEQSVALLNLWVIREGQNANMENLYTMLQSIDRGEIVNMLE [A66M], the abundance fitness was -0.332 ± 0.2.

Consider MKMAVISEHLGLSWAELARELQFSVEDINRIRVENPNSLLEQSVALLNLWVIREGQNANMENLYTRLQSIDRGEIVNMLE [A66R], for which the abundance fitness is -0.746 ± 0.1.

MKMAVISEHLGLSWAELARELQFSVEDINRIRVENPNSLLEQSVALLNLWVIREGQNANMENLYTWLQSIDRGEIVNMLE [A66W]: the abundance fitness is -0.99 ± 0.32.

Consider MKMAVISEHLGLSWAELARELQFSVEDINRIRVENPNSLLEQSVALLNLWVIREGQNANMENLYYALQSIDRGEIVNMLE [T65Y], for which the abundance fitness is -0.132 ± 0.11.

MKMAVISEHLGLSWAELARELQFSVEDINRIRVENPNSLLEQSVALLNLWVIREGQNANMENLYMALQSIDRGEIVNMLE [T65M]: the abundance fitness was -0.15 ± 0.076.

Regarding MKMAVISEHLGLSWAELARELQFSVEDINRIRVENPNSLLEQSVALLNLWVIREGQNANMENLYNALQSIDRGEIVNMLE [T65N], the abundance fitness was -0.004 ± 0.14.

As to MKMAVISEHLGLSWAELARELQFSVEDINRIRVENPNSLLEQSVALLNLWVIREGQNANMENLYRALQSIDRGEIVNMLE [T65R], the abundance fitness is -0.04 ± 0.044.

Regarding MKMAVISEHLGLSWAELARELQFSVEDINRIRVENPNSLLEQSVALLNLWVIREGQNANMENLYPALQSIDRGEIVNMLE [T65P], the abundance fitness worked out at 0.095 ± 0.065.

For MKMAVISEHLGLSWAELARELQFSVEDINRIRVENPNSLLEQSVALLNLWVIREGQNANMENLYVALQSIDRGEIVNMLE [T65V], the abundance fitness was -0.153 ± 0.053.

In the case of MKMAVISEHLGLSWAELARELQFSVEDINRIRVENPNSLLEQSVALLNLWVIREGQNANMENLYQALQSIDRGEIVNMLE [T65Q], the abundance fitness came to 0.016 ± 0.043.

For the variant MKMAVISEHLGLSWAELARELQFSVEDINRIRVENPNSLLEQSVALLNLWVIREGQNANMENLYIALQSIDRGEIVNMLE [T65I], the abundance fitness was -0.209 ± 0.14.

MKMAVISEHLGLSWAELARELQFSVEDINRIRVENPNSLLEQSVALLNLWVIREGQNANMENLYLALQSIDRGEIVNMLE [T65L]: the abundance fitness was -0.072 ± 0.049.

Take MKMAVISEHLGLSWAELARELQFSVEDINRIRVENPNSLLEQSVALLNLWVIREGQNANMENLYSALQSIDRGEIVNMLE [T65S]: the abundance fitness was 0.001 ± 0.046.

With MKMAVISEHLGLSWAELARELQFSVEDINRIRVENPNSLLEQSVALLNLWVIREGQNANMENLYKALQSIDRGEIVNMLE [T65K], the abundance fitness was -0.055 ± 0.12.

Consider MKMAVISEHLGLSWAELARELQFSVEDINRIRVENPNSLLEQSVALLNLWVIREGQNANMENLYWALQSIDRGEIVNMLE [T65W], for which the abundance fitness was -0.291 ± 0.083.

Regarding MKMAVISEHLGLSWAELARELQFSVEDINRIRVENPNSLLEQSVALLNLWVIREGQNANMENLYTAAQSIDRGEIVNMLE [L67A], the abundance fitness is -0.895 ± 0.22.

Take MKMAVISEHLGLSWAELARELQFSVEDINRIRVENPNSLLEQSVALLNLWVIREGQNANMENLYTAEQSIDRGEIVNMLE [L67E]: the abundance fitness is -0.792 ± 0.21.

With MKMAVISEHLGLSWAELARELQFSVEDINRIRVENPNSLLEQSVALLNLWVIREGQNANMENLYTACQSIDRGEIVNMLE [L67C], the abundance fitness is -0.743 ± 0.28.

As to MKMAVISEHLGLSWAELARELQFSVEDINRIRVENPNSLLEQSVALLNLWVIREGQNANMENLYTAFQSIDRGEIVNMLE [L67F], the abundance fitness is -0.788 ± 0.23.
